Laboratory results as given in article PMC4688242 (Neurobiology of disease, 2015).

Biological target: the molecule itself
Test: SDS-PAGE and Western blot of SDS-resistant oligomers

Protein | binding result
EASNCFAIRHFENKFAVETLICFNLFLNSQEKHY (N-terminal pyroglutamate (pE) in place of Glu1) [ADan pE (34-amino acid ADan amyloid peptide with N-terminal pyroglutamate)] | binds
EASNCFAIRHFENKFAVETLICFNLFLNSQEKHY [ADan E (34-amino acid ADan amyloid peptide with N-terminal glutamate)] | binds
